# ± gives the standard deviation of the averaged measurements.
# Test system: Saccharomyces cerevisiae
# Test: protein stability index of tFT-peptide fusion (C-terminal peptide) (PSI (0-1 scale)); higher = more stable (slower turnover)
# Conditions: genetic background: wild type; temperature: 30 C
# 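Note: PSI is a weighted mean of sequencing reads over stability bins, variants kept only with over 10 reads, mCherry proximal and sfGFP distal, peptide attached via GGGS linker.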
row,Sequence,protein stability index
1,REKQRYEERLRE,0.636 ± 0.018
2,RERTNKKLAKDK,0.656 ± 0.045
3,RESGASLWATMR,0.734 ± 0.015
4,RESRGAGGGEGG,0.667 ± 0.033
5,RESVSPCLVGAV,0.616 ± 0.056
6,REWRLVTCSDCL,0.668 ± 0.023
7,RFAGLRDVGCFL,0.695 ± 0.034
8,RFGRGAVWGLGG,0.6554 ± 0.0051
9,RFINRVVAGDRR,0.681 ± 0.032
10,RFLLSITSSLVL,0.666 ± 0.043
11,RFLVRSFIGWRG,0.669 ± 0.031
12,RFPFGPAPPPTP,0.744 ± 0.042
13,RFSMVVVERYSC,0.577 ± 0.0062
14,RFSVRGARHRCG,0.693 ± 0.0079
15,RFTIPFSVQRVD,0.721 ± 0.094
16,RFYFSLSWSGFC,0.66 ± 0.077
17,RFYLLAEDGSST,0.703 ± 0.017
18,RFYSKDLVHLST,0.6656 ± 0.0031
19,RGALGVVWSGLD,0.637 ± 0.023
20,RGARGGRLVCRE,0.689 ± 0.043
21,RGARGGSRGGGG,0.677 ± 0.086
22,RGARPRTPPSPP,0.713 ± 0.03
23,RGCGGGRVAREC,0.689 ± 0.051

row,Sequence,protein stability index
1,RGCGKGPLLSWF,0.717 ± 0.0093
2,RGCRLRCSLPGR,0.669 ± 0.056
3,RGCSAVEKARPC,0.622 ± 0.0067
4,RGGCLPTCPQET,0.652 ± 0.026
5,RGGGEGGKEDSQ,0.682 ± 0.047
6,RGGGGGGDCVGA,0.727 ± 0.018
7,RGGGRDGQTRGV,0.6165 ± 0.0045
8,RGGGVRYGVARR,0.68 ± 0.059
9,RGGRLQVGMEAV,0.6653 ± 0.0022
10,RGGRMGFYLVCI,0.636 ± 0.028
11,RGGSVDCRGNPL,0.656 ± 0.013
12,RGGVFGTCGVGG,0.653 ± 0.035
13,RGGWYLQKAITP,0.716 ± 0.047
14,RGHPRRRPERKA,0.707 ± 0.09
15,RGHTTYCGPALI,0.697 ± 0.08
16,RGIGIQSVAARN,0.723 ± 0.094
17,RGIRDQRKSKDK,0.663 ± 0.029
18,RGIYSIGASGRS,0.695 ± 0.033
19,RGLGCEVGTVEV,0.768 ± 0.0077
20,RGLPVLTFPHTP,0.71 ± 0.0095
21,RGLRVWWGLVGV,0.633 ± 0.044
22,RGPRSSGRKGIR,0.676 ± 0.042
23,RGQDGSEGRGPA,0.653 ± 0.02

row,Sequence,protein stability index
1,RGQSGSLSKLLG,0.72 ± 0.026
2,RGRAVGGARKFG,0.739 ± 0.029
3,RGRFVVGAGRED,0.67 ± 0.077
4,RGRGGGGVVGRW,0.7119 ± 0.0022
5,RGRGKVGLWEGS,0.669 ± 0.067
6,RGRMGLGAPGGG,0.615 ± 0.0085
7,RGRPRRGGGVSG,0.727 ± 0.047
8,RGSAPLFVPLSP,0.7106 ± 0.0069
9,RGVLRSETCRLS,0.7104 ± 0.0069
10,RGWGWGRKVSVG,0.62 ± 0.069
11,RGYVGVTQVCKN,0.695 ± 0.043
12,RHDMTSGCVSHS,0.703 ± 0.039
13,RHGLPPAPILSP,0.661 ± 0.038
14,RHILFLLLTPHS,0.5774 ± 0.0026
15,RHLACFWFRPPW,0.694 ± 0.018
16,RHLRSGTRAKVY,0.678 ± 0.013
17,RHPALPGPPGSS,0.698 ± 0.13
18,RIAEYIDTKCPR,0.708 ± 0.0074
19,RICTLCRGGRTP,0.673 ± 0.03
20,RIDRDDHLVPNS,0.626 ± 0.092
21,RIERIYEIKKNR,0.68086 ± 7.2e-05
22,RIIIRNIKKKTE,0.641 ± 0.023
23,RILIRVQSSKLR,0.671 ± 0.09

row,Sequence,protein stability index
1,RILNADSREHSS,0.775 ± 0.12
2,RIVASTLKSYLT,0.68835 ± 0.00068
3,RIVQQATHVREH,0.787 ± 0.011
4,RKEKKMKITKRC,0.691 ± 0.044
5,RKEQKGKGKEGG,0.697 ± 0.024
6,RKFLCKSPIECS,0.574 ± 0.015
7,RKHMCSYIRVSR,0.723 ± 0.085
8,RKINQKNNEKNS,0.648 ± 0.0037
9,RKIRRLIVKKGI,0.67 ± 0.022
10,RKKENRYKIEVK,0.6799 ± 0.0017
11,RKKGRKKKQDKN,0.689 ± 0.023
12,RKKIKRKNNKEK,0.685 ± 0.052
13,RKKKKDKSAIKE,0.722 ± 0.018
14,RKKRRKVKRSEK,0.547 ± 0.034
15,RKKTKKEKSEEI,0.694 ± 0.031
16,RKLHDKDDPKTI,0.681 ± 0.03
17,RKMQKKFESKKM,0.76 ± 0.039
18,RKMTSIINKKTV,0.513 ± 0.0083
19,RKNENKKKKNKK,0.702 ± 0.012
20,RKQHKLRKTKRA,0.657 ± 0.061
21,RKQKRGSKKKKQ,0.721 ± 0.049
22,RKQRERGKCGKR,0.726 ± 0.031
23,RKRHDLPPAGPH,0.713 ± 0.023

row,Sequence,protein stability index
1,RKRTIVCRPGRV,0.698 ± 0.021
2,RKSKYKGTQRIN,0.564 ± 0.011
3,RKTQKIEQKQKE,0.756 ± 0.076
4,RKVTKLYDNIML,0.776 ± 0.1
5,RKVVLLFGLGEG,0.669 ± 0.026
6,RLAPASAFPHSP,0.687 ± 0.052
7,RLAVGMIRPQGE,0.637 ± 0.024
8,RLDGVTPVRTCL,0.661 ± 0.054
9,RLEDGCGVGAGR,0.645 ± 0.015
10,RLFPSPIYLARF,0.676 ± 0.12
11,RLGECSRKSYHT,0.692 ± 0.024
12,RLGGLLCSPLVD,0.705 ± 0.097
13,RLGPSAPLFVHL,0.542 ± 0.042
14,RLGRATLLLLFF,0.572 ± 0.12
15,RLHSLLFYALGS,0.668 ± 0.028
16,RLLASIRAAQAS,0.525 ± 0.1
17,RLLDLRLYVGKG,0.618 ± 0.012
18,RLLENVSYDWRN,0.714 ± 0.016
19,RLLFPPPMLPPP,0.735 ± 0.038
20,RLLGSSPAVLLY,0.628 ± 0.062
21,RLLLSVLFGFFA,0.5248 ± 0.0011
22,RLLYGICLLGAS,0.558 ± 0.092
23,RLPPPPSPPPPP,0.688 ± 0.016

row,Sequence,protein stability index
1,RLPPPSPPVPLL,0.695 ± 0.0081
2,RLPVKQQVLPDK,0.6783 ± 0.0062
3,RLQSSRQMLVPS,0.63729 ± 0.00036
4,RLRESMYPSSEE,0.717 ± 0.0085
5,RLREVVHKYNSI,0.757 ± 0.086
6,RLRRSSSNPHSP,0.656 ± 0.043
7,RLSCCKCRGGAV,0.6979 ± 0.0042
8,RLSFSVPPCLDI,0.691 ± 0.032
9,RLSLGPGLLGSH,0.74 ± 0.014
10,RLSNIARRQENG,0.623 ± 0.017
11,RLSPPPTLSRFH,0.643 ± 0.03
12,RLSSPTRINHPN,0.71 ± 0.04
13,RLTLKKMIKQNV,0.56 ± 0.016
14,RLTLPSQPHAPA,0.694 ± 0.098
15,RLTYVGDYELYV,0.686 ± 0.053
16,RLVAHPSRPLPV,0.647 ± 0.033
17,RLVISPRSRPCP,0.725 ± 0.069
18,RLVLRGRWGIGR,0.618 ± 0.0014
19,RLVTSCSAAGSG,0.671 ± 0.007
20,RLWKQPWLTMAF,0.496 ± 0.038
21,RLWPPGGEFRLV,0.719 ± 0.078
22,RLWSSFKRHGAA,0.743 ± 0.022
23,RLYCSWEFTFVQ,0.617 ± 0.019

row,Sequence,protein stability index
1,RMATGNPAPHPP,0.735 ± 0.04
2,RMSHFNTDSVHF,0.761 ± 0.019
3,RNGALSVVCDYV,0.698 ± 0.15
4,RNIMKQQNTSIR,0.717 ± 0.078
5,RNIQKKKKIQHI,0.514 ± 0.047
6,RNKEPRSSRQNS,0.578 ± 0.009
7,RNRTNVETKTGS,0.6966 ± 0.0034
8,RPAPPLFVSSPG,0.699 ± 0.0097
9,RPAPPPHPLSPV,0.7 ± 0.031
10,RPEVRIHITSQS,0.655 ± 0.017
11,RPFPLTRPTLLF,0.67 ± 0.016
12,RPGDAASGARGA,0.691 ± 0.081
13,RPGPRAASADCP,0.72 ± 0.025
14,RPIPMEGAYYLV,0.693 ± 0.027
15,RPKPKRIGREEP,0.63 ± 0.083
16,RPLPPLPPPSCP,0.71 ± 0.046
17,RPLPPPPPPRSP,0.741 ± 0.21
18,RPPAPQTATPHR,0.726 ± 0.013
19,RPPCFRPPPPPL,0.715 ± 0.072
20,RPPPGTPPGWSP,0.73 ± 0.028
21,RPPPPLPQAPPT,0.679 ± 0.0082
22,RPPPPPSPPPPP,0.674 ± 0.073
